Measured values published in PMC5737801 (Nucleic Acids Research, 2017).
Substitutions are numbered along the chain they refer to. In names and notes the source's numbering stands.

T1: GST-TyrRS fusion protein, wild type, full length (human, UniProt P54577 1-528)
T1 sequence: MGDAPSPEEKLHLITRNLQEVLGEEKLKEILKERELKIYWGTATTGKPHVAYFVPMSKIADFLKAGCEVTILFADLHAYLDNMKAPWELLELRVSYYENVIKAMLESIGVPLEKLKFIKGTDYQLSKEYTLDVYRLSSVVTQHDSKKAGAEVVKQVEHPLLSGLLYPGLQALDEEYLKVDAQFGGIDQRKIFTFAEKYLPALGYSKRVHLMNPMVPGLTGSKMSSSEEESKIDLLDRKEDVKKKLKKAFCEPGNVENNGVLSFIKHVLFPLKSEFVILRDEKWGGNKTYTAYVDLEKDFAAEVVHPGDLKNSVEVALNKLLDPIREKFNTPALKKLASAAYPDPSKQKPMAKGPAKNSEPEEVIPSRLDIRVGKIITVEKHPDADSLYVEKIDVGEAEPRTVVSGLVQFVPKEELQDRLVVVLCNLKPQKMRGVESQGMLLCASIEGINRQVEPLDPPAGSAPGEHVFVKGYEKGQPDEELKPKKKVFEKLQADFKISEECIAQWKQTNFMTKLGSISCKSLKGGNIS

T2: GST-TyrRS E196K fusion protein, full length (human, UniProt P54577 1-528, E196K)
T2 sequence: T1 sequence with E196K

T3: GST-TyrRS Δ153-156 fusion protein, full length (human, UniProt P54577 1-528, Δ153-156VKQV)
T3 sequence: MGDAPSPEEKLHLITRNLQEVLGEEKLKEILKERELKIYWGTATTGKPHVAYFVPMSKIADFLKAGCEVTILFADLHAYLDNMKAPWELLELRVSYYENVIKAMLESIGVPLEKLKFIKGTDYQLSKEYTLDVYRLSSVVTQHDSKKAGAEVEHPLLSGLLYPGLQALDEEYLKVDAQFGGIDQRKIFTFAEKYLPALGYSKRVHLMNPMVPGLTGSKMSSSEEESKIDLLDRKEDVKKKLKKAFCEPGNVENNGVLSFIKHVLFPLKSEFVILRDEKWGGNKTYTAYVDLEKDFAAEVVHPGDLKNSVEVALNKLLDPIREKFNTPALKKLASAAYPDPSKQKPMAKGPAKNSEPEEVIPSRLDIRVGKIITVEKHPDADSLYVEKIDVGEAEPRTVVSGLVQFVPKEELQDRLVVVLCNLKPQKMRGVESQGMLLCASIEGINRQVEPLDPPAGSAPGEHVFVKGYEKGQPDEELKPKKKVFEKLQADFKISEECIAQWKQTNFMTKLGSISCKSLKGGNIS

B1: full-length tyrosyl-tRNA synthetase Δ153-156 deletion mutant (TyrRS^Δ153-156), C-terminal hexahistidine tag (enzyme)
chain: T3 sequence
B2: RBCC (aa 65–378 of TRIM28) (domain or fragment)
chain: CGVCRERLRPEREPRLLPCLHSACSACLGPAAPAAANSSGDGGAAGDGTVVDCPVCKQQCFSKDIVENYFMRDSGSKAATDAQDANQCCTSCEDNAPATSYCVECSEPLCETCVEAHQRVKYTKDHTVRSTGPAKSRDGERTVYCNVHKHEPLVLFCESCDTLTCRDCQLNAHKDHQYQFLEDAVRNQRKLLASLVKRLGDKHATLQKSTKEVRSSIRQVSDVQKRVQVDVKMAILQIMKELNKRGRVLVNDAQKVTEGQQERLERQHWTMTKIQKHQEHILRFASWALESDNNTALLLSKKLIYFQLHRALKM
B3: full-length tyrosyl-tRNA synthetase G41R mutant (TyrRS^G41R), C-terminal hexahistidine tag (enzyme)
chain: T1 sequence with G41R
B4: full-length tyrosyl-tRNA synthetase E196K mutant (TyrRS^E196K), C-terminal hexahistidine tag (enzyme)
chain: T1 sequence with E196K
B5: full-length tyrosyl-tRNA synthetase, wild type (TyrRS^WT), C-terminal hexahistidine tag (enzyme)
chain: T1 sequence

Columns and labels:
SEC = biological target: the molecule itself; experiment: SEC
[1] = biological target: T1, GST-TyrRS fusion protein, wild type, …; experiment: BLI
[2] = biological target: T2, GST-TyrRS E196K fusion protein, full …; experiment: BLI
[3] = biological target: T3, GST-TyrRS Δ153-156 fusion protein, full …; experiment: BLI
SAXS = biological target: the molecule itself; experiment: SAXS

| Binder | Kd (SEC) [nM] | stoichiometry N (SAXS) | further results |
| --- | --- | --- | --- |
| B1 | ~200 |  |  |
| B2 |  |  | binding result [1]: binds; fold increase in binding affinity against TyrRS^WT [2]: 5 fold; fold increase in binding affinity against TyrRS^WT [3]: 5 fold |
| B3 | ~200 | 2 |  |
| B4 |  | 2 |  |
| B5 | ~200 |  |  |
